Assay [1] addresses AS15[H33R] monobody, displayed on yeast. The assay is described as follows: flow cytometry on cells.
Assay [2] addresses AS27[Y33R] monobody, displayed on yeast. Description: flow cytometry on cells.

Consider “Abl SH2 domain, biotinylated (for yeast display measurements) (from UniProt P00519 112-232) (domain or fragment)”, for which the fold reduction of affinity against AS15 in assay [1] is 4 times. The same substance had a fold reduction of affinity against AS27 in assay [2] of 8 times.

Source of the values: paper PMC3260337.
